From publication PMC4222533

What was measured:
[1] = target: skelemin tandem IgC2 domains 4 and 5 with the interconnecting linker, C1354S (mouse); assay: ITC
[2] = target: integrin β3 cytoplasmic tail (UniProt P05106); assay: ITC
Chain of integrin β3 cytoplasmic tail (P05106 742-788): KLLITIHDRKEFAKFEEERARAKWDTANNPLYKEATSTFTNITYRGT

A dH [1] of -0.382 kcal/mol, a stoichiometry N [1] of 1.26 and a Kd [2] of 5.7 µM were found for “integrin αIIb cytoplasmic tail peptide (starting from W988)” in this work.
